According to IntAct's records for PubMed 28965847:

B1: Suppressor of fused homolog (Homo sapiens), Q9UMX1 (parent)
chain: MAELRPSGAPGPTAPPAPGPTAPPAFASLFPPGLHAIYGECRRLYPDQPNPLQVTAIVKYWLGGPDPLDYVSMYRNVGSPSANIPEHWHYISFGLSDLYGDNRVHEFTGTDGPSGFGFELTFRLKRETGESAPPTWPAELMQGLARYVFQSENTFCSGDHVSWHSPLDNSESRIQHMLLTEDPQMQPVQTPFGVVTFLQIVGVCTEELHSAQQWNGQGILELLRTVPIAGGPWLITDMRRGETIFEIDPHLQERVDKGIETDGSNLSGVSAKCAWDDLSRPPEDDEDSRSICIGTQPRRLSGKDTEQIRETLRRGLEINSKPVLPPINPQRQNGLAHDRAPSRKDSLESDSSTAIIPHELIRTRQLESVHLKFNQESGALIPLCLRGRLLHGRHFTYKSITGDMAITFVSTGVEGAFATEEHPYAAHGPWLQILLTEEFVEKMLEDLEDLTSPEEFKLPKEYSWPEKKLKVSILPDVVFDSPLH

Variants of: B1
Conditions: with gli3_mouse Gli3, Q61602
gli3_mouse Gli3, Q61602, sequence (Q61602 whole entry): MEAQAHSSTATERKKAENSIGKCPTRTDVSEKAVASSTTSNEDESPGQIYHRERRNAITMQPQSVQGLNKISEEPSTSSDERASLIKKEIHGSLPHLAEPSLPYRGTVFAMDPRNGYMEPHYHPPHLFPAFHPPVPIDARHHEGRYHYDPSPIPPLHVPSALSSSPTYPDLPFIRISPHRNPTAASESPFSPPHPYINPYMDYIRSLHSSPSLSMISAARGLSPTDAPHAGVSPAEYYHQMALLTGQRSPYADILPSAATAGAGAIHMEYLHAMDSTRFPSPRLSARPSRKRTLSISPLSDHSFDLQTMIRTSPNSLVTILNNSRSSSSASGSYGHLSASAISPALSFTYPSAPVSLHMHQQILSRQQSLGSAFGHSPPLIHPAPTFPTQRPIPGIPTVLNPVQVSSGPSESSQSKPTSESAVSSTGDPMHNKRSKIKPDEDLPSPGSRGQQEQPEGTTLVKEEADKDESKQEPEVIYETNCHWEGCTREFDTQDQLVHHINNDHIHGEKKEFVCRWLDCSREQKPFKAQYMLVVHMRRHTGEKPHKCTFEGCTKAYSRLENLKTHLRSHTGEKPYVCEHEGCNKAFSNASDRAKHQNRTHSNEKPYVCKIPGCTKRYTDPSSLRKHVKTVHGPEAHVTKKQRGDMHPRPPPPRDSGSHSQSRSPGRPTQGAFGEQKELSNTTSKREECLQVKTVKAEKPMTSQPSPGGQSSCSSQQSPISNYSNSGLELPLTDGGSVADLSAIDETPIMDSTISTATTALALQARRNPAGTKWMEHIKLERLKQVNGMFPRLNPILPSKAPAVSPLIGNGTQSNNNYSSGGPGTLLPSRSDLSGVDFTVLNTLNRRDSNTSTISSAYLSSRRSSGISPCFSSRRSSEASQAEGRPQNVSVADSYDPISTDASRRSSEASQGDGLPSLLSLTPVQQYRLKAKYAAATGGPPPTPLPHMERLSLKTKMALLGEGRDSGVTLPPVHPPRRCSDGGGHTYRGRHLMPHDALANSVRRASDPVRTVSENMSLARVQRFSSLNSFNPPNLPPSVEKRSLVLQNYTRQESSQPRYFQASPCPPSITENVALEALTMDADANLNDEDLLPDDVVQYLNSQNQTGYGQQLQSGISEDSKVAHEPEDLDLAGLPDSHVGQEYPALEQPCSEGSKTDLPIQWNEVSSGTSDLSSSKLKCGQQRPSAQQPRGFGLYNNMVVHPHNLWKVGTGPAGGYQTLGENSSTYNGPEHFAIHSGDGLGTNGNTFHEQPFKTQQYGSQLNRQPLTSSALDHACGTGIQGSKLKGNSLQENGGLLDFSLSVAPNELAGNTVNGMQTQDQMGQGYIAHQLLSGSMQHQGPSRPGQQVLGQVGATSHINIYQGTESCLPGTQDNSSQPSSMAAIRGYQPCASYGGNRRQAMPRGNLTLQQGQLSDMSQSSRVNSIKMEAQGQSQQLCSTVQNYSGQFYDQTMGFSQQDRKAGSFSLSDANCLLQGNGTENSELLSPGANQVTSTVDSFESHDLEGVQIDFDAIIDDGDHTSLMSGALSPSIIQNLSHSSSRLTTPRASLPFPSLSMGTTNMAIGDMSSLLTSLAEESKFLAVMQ

| Variant | effect of a mutation on the interaction |
| --- | --- |
| MAELRPSGAPGPTAPPAPGPTAPPAFASLFPPGLHAIYGECRRLYPDQPNPLQVTAIVKYWLGGPDPLDYVSMYRNVGSPSANIPEHWHYISFGLSDLYGDNRVHEFTGTDGPSGFGFELTFRLKRETGESAPPTWPAELMQGLARYVFQSENTFCSGDHVSWHSPLDNSESRIQRMLLTEDPQMQPVQTPFGVVTFLQIVGVCTEELHSAQQWNGQGILELLRTVPIAGGPWLITDMRRGETIFEIDPHLQERVDKGIETDGSNLSGVSAKCAWDDLSRPPEDDEDSRSICIGTQPRRLSGKDTEQIRETLRRGLEINSKPVLPPINPQRQNGLAHDRAPSRKDSLESDSSTAIIPHELIRTRQLESVHLKFNQESGALIPLCLRGRLLHGRHFTYKSITGDMAITFVSTGVEGAFATEEHPYAAHGPWLQILLTEEFVEKMLEDLEDLTSPEEFKLPKEYSWPEKKLKVSILPDVVFDSPLH [H176R] | decreasing interaction strength |
| MAELRPSGAPGPTAPPAPGPTAPPAFASLFPPGLHAIYGECRRLYPDQPNPLQVTAIVKYWLGGPDPLDYVSMYRNVGSPSANIPEHWHYISFGLSDLYGDNRVHEFTGTDGPSGFGFELTFRLKRETGESAPPTWPAELMQGLARYVFQSENTFCSGDHVSWHSPLDNSESRIQHMLLTEDPQMQPVQTPFGVVTFLQIVGVCTEELHSAQQWNGQGILELLRTVPIAGGPWLITDMRRGETIFEIDPHLQERVDKGIETDGSNLSGVSAKCAWDDLSRPPEDDEDSRSICIGTQPRRLSGKDTEQIRETLRRGLEINSKPVLPPINPQRQNGLAHDRAPSRKDSLESDSSTAIIPHELIRTRQLESVHLKFNQESGALIPLCLRGRLLHGRHFTYKSITGDMATTFVSTGVEGAFATEEHPYAAHGPWLQILLTEEFVEKMLEDLEDLTSPEEFKLPKEYSWPEKKLKVSILPDVVFDSPLH [I406T] | disrupting interaction strength |
